Laboratory results: patent US20230235058A1 (OXFORD UNIVERSITY INNOVATION, published 2023)
Residue numbers refer to the chain shown, from its start. Numbers in names are those of the source. Blank lines part the entries; values can stand above or below the binder they belong to.

How the values were obtained:
[1] = molecular target: T1, full length human BTLA expressed on cells (human, UniProt Q7Z6A9 31-289); assay: cell-based or functional assay
[2] = molecular target: T1, full length human BTLA expressed on …; assay: flow cytometry, BTLA Jurkat cells
Protocol: (§1) A lentiviral transfection system was used to express full length human or cynomolgus BTLA in a Jurkat T cell line. 1×10⁵ cells per well were plated in 96 well U-bottom plates. […] Secondary antibody was incubated for 30 minutes on ice, then cells were washed and resuspended in FACS buffer for analysis on a flow cytometer. The geometric mean fluorescent intensity of secondary antibody was plotted for each concentration and the EC50 for receptor binding calculated by non-linear curve fitting using GraphPad Prism software.
(§2) The ability of the BTLA agonist antibodies of the present invention to bind to human or cynomolgus BTLA expressed on the cell surface was assessed by flow cytometry. A lentiviral transfection system was used to express full length human or cynomolgus BTLA in a Jurkat T cell line. 1×10⁵ cells per well were plated in 96 well U-bottom plates.

[3] = molecular target: T2, full length cynomolgus BTLA expressed on Jurkat cells (cynomolgus monkey, UniProt Q7Z6A9 31-289 (human entry)); assay: flow cytometry, BTLA Jurkat cells
T2 construct: also called cynomolgus BTLA expressing cells
T2 chain: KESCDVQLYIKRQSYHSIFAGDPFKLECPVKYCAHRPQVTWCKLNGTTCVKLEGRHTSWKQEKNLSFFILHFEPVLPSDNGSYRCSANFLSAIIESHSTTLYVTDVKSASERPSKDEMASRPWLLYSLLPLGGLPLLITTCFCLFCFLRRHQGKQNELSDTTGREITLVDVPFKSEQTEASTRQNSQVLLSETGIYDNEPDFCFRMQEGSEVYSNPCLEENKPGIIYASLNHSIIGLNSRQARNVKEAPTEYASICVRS
Protocol: as §1, §2

[4] = molecular target: T3, monomeric soluble human BTLA extracellular domain (BTLA K31-R151) (human, UniProt Q7Z6A9 31-151); assay: SPR Biacore 8K 37C, single cycle kinetics;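 note: antibody captured on sensor chip, soluble BTLA extracellular domain flowed over at several concentrations in HBS-EP pH 7.4, rates fitted after subtracting isotype-control reference channel and blank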
T3 construct: also called hBTLA; monomeric BTLA
Protocol: (§3) The binding affinity and kinetics of humanised BTLA agonist antibodies to human or cynomolgus BTLA were determined by surface plasmon resonance using the Biacore 8K (GE Healthcare). […] Anti-BTLA antibody was then captured onto the biosensor surface and a negative control antibody (human IgG1k isotype control; Sino Biological cat #HG1K) captured in the reference channel. Various concentrations of monomeric soluble human BTLA extracellular domain (BTLA^K31-R151, produced recombinantly in house) or soluble cynomolgus macaque BTLA extracellular domain (BTLA^K31-R151, produced recombinantly in house) were then injected over the immobilized antibodies in the buffer HBS-EP (GE Healthcare, cat #BR100669), pH 7.4 (HBS-P) at 37° C., in a single cycle kinetics analysis.

[5] = molecular target: T4, soluble cynomolgus macaque BTLA extracellular domain (BTLA K31-R151) (cynomolgus macaque); assay: SPR Biacore 8K 37C, single cycle kinetics;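 note: antibody captured on sensor chip, soluble BTLA extracellular domain flowed over at several concentrations in HBS-EP pH 7.4, rates fitted after subtracting isotype-control reference channel and blank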
T4 construct: also called cynomolgus BTLA; cyno BTLA
T4 chain: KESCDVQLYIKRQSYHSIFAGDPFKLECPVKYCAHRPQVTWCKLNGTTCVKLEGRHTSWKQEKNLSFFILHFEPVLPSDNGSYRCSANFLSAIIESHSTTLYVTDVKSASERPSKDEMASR
Protocol: as §3

human FcRn = molecular target: T5, human FcRn (human, UniProt P55899 24-297; P61769 21-119, limits assumed, biotinylated); assay: SPR, pH6.0
T5 construct: bought; also called FcRn pH6

human FcγR1A [6] = molecular target: T6, human FcγR1A (human, UniProt P12314 16-288, biotinylated); assay: SPR 37C, kinetic; wild-type hIgG1 Fc
T6 construct: bought; also called CD64A
T6 sequence (P12314 16-288): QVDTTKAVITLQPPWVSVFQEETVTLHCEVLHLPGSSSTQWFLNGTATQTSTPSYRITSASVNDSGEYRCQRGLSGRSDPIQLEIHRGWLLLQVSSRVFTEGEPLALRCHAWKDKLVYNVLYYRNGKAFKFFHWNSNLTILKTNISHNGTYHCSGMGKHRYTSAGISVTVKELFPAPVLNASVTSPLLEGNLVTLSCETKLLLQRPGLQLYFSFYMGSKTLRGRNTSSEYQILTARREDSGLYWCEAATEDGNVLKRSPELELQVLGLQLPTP
Protocol: (§4) For the high affinity FcR interactions (FcγR1A, and also FcRn assessed at pH6.0) the binding was assessed in a kinetic analysis with antibody as analyte. […] Reference flow cell 1 was left empty in all channels. Purified antibody was then injected at a single concentration and on/off rates calculated by curve fitting on BiaEvaluation software.

human FcγR2A 131R [7] = molecular target: T7, human FcγR2A 131R (human, UniProt P12318 34-217); assay: SPR 37C, steady state; wild-type hIgG1 Fc
T7 construct: extracellular domain
T7 sequence (looked up): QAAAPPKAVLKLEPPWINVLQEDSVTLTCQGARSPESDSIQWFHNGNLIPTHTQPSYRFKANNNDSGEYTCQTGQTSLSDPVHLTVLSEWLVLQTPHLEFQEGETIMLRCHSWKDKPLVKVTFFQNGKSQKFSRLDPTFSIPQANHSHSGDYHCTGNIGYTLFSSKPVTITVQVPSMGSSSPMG
Protocol: (§5) For the low affinity FcγRs (FcγR2A, FcγR2B, FcγR3A and FcγR3B) the interactions were assessed by surface plasmon resonance with the recombinantly expressed FcRs (extracellular domains only) as analyte. Briefly, recombinant human BTLA extracellular domain (BTLA^K31-R151) was covalently immobilised to both flow cells of all channels of a CMS Series S sensor chip using the GE Healthcare Amine coupling kit. The 2.8.6 Fc variant to be assessed was then captured (approx. 500-1000 response units) in flow cell 2 of each channel. Steady state affinity analysis was then performed by injecting varying concentrations of FcR in multiple cycles and measuring equilibrium binding. Double referencing was used (subtracting the signal in the reference Fc1 and also subtracting the signal from a blank zero concentration injection). KDs were calculated from the Langmuir curves (plotting equilibrium binding against analyte concentration to determine the concentration required for half maximal binding).

human FcγR2A 131H [8] = molecular target: T8, human FcγR2A 131H (human, UniProt P12318 34-217); assay: SPR 37C, steady state; wild-type hIgG1 Fc
T8 construct: extracellular domain
T8 sequence (looked up): T7 sequence (looked up) with R134H
Protocol: as §5

human FcγR2B [9] = molecular target: T9, human FcγR2B (human, UniProt P31994 43-217); assay: SPR 37C, steady state; wild-type hIgG1 Fc
T9 construct: extracellular domain; also called hFcγR2B; CD32B
T9 sequence (looked up): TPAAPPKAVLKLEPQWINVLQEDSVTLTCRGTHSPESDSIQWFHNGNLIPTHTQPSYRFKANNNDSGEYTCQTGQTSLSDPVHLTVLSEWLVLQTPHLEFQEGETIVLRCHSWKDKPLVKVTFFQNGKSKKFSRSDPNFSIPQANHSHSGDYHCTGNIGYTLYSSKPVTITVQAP
Protocol: as §5

human FcγR3A 158F [10] = molecular target: T10, human FcγR3A 158F (human, UniProt P08637 17-208); assay: SPR 37C, steady state; wild-type hIgG1 Fc
T10 construct: extracellular domain
T10 sequence (P08637 17-208): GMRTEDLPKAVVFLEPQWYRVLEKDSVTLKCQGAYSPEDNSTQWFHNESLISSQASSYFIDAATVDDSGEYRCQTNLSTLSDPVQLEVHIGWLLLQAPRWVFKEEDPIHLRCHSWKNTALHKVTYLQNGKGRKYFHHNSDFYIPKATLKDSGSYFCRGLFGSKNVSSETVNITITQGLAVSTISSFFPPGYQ
Protocol: as §5

human FcγR3A 158V [11] = molecular target: T11, human FcγR3A 158V (human, UniProt P08637 17-208); assay: SPR 37C, steady state; wild-type hIgG1 Fc
T11 construct: extracellular domain
T11 sequence (P08637 17-208 F176V): as the sequence (P08637 17-208) above, with F160V counted along it
Protocol: as §5

human FcγR3B [12] = molecular target: T12, human FcγR3B (human, UniProt O75015 17-200, limits assumed); assay: SPR 37C, steady state; wild-type hIgG1 Fc
T12 construct: extracellular domain; also called CD16B
T12 sequence (O75015 17-200 limits assumed): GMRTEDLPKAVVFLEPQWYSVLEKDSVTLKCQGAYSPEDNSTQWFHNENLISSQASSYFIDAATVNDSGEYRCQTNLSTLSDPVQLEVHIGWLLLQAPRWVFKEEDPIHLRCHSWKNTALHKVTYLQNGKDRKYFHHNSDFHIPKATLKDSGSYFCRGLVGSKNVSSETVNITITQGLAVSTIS
Protocol: as §5

human FcγR2B [13] = molecular target: T9, human FcγR2B; assay: SPR (Example 23)
Protocol: as §5

human FcγR1A [14] = molecular target: T6, human FcγR1A; assay: SPR 37C, kinetic; hIgG1 P238D G237D P271G A330R (V9) Fc variant
Protocol: For the high affinity FcR interactions (FcγR1A, and also FcRn assessed at pH6.0) the binding was assessed in a kinetic analysis with antibody as analyte. […] Reference flow cell 1 was left empty in all channels. Purified antibody was then injected at a single concentration and on/off rates calculated by curve fitting on BiaEvaluation software. […] IgG Fc has two binding sites for FcRn so this assessment performed with FcRn immobilised at high density provides an avidity estimate for the interaction rather than a true KD.

human FcγR2A 131R [15] = molecular target: T7, human FcγR2A 131R; assay: SPR 37C, steady state; hIgG1 P238D G237D P271G A330R (V9) Fc variant
Protocol: as §5

human FcγR2A 131H [16] = molecular target: T8, human FcγR2A 131H; assay: as above
Protocol: as §5

human FcγR2B [17] = molecular target: T9, human FcγR2B; assay: as above
Protocol: as §5

human FcγR3A 158F [18] = molecular target: T10, human FcγR3A 158F; assay: as above
Protocol: as §5

human FcγR3A 158V [19] = molecular target: T11, human FcγR3A 158V; assay: as above
Protocol: as §5

human FcγR3B [20] = molecular target: T12, human FcγR3B; assay: as above
Protocol: as §5

[21] = molecular target: T3, monomeric soluble human BTLA …; assay: SPR, monomeric BTLA
human FcγR1A [22] = molecular target: T6, human FcγR1A; assay: SPR 37C, kinetic
Protocol: as §4

human FcγR2A 131R [23] = molecular target: T7, human FcγR2A 131R; assay: SPR 37C, steady state;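 note: fc variants captured on chip-bound human BTLA ectodomain, recombinant FcγR ectodomains injected as analyte at varied concentrations, double-referenced equilibrium binding fitted to Langmuir model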
Protocol: as §5

human FcγR2A 131H [24] = molecular target: T8, human FcγR2A 131H; assay: SPR 37C, steady state;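 note: fc variants captured on chip-bound human BTLA ectodomain, recombinant FcγR ectodomains injected as analyte at varied concentrations, double-referenced equilibrium binding fitted to Langmuir model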
Protocol: as §5

human FcγR2B [25] = molecular target: T9, human FcγR2B; assay: SPR 37C, steady state;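 note: fc variants captured on chip-bound human BTLA ectodomain, recombinant FcγR ectodomains injected as analyte at varied concentrations, double-referenced equilibrium binding fitted to Langmuir model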
Protocol: as §5

human FcγR3A 158F [26] = molecular target: T10, human FcγR3A 158F; assay: SPR 37C, steady state;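 note: fc variants captured on chip-bound human BTLA ectodomain, recombinant FcγR ectodomains injected as analyte at varied concentrations, double-referenced equilibrium binding fitted to Langmuir model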
Protocol: as §5

human FcγR3A 158V [27] = molecular target: T11, human FcγR3A 158V; assay: SPR 37C, steady state
Protocol: as §5

human FcγR3B [28] = molecular target: T12, human FcγR3B; assay: SPR 37C, steady state
Protocol: as §5

B1: Engineered humanised 6.2 (Variant C) (antibody, V domains shown)
VH: EVQLVESGGGLVKPGGSLRLSCAASGFTLSSYGMSWVRQAPGKGLEWVASIRSDGQTYYPDSVKGRFTISRDNAKNTLYLQMSSLRAEDTAVYYCTRGGYYGSSPYYWGQGTTVTVSS
VL: DIVMTQSPLSLPVTPGEPASISCKSSQSLLYSSNQKNYLAWYQQKPGQSPKLLIYWASTRESGVPDRFSGSGSGTDFTLKISRVEAEDVGVYYCQQYYNYLTFGGGTKVEIKR
- inhibition of NFkB signal, IC50 [1]: 0.028 nM
- maximal inhibition of NFkB signal [1]: 47%
- EC50 [2]: 0.062 nM
- EC50 [3]: 0.000148 µM
- Kd [4]: 0.00125 µM
- koff [4]: 0.00133 s⁻¹
- kon [4]: 1.06e+06 M⁻¹ s⁻¹
- Kd [5]: 0.0154 µM
- koff [5]: 0.00352 s⁻¹
- kon [5]: 229000 M⁻¹ s⁻¹

B2: humanised 2.8.6 hIgG1 (antibody)
heavy: not shown
VL: EIVLTQSPATLSLSPGERATLSCRASSSVSYMHWYQQKPGQAPRPLIYATSNRATGIPARFSGSGSGTDYTLTISSLEPEDFAVYYCHQWSSNPYTFGQGTKLEIKRTVAAPSVFIFPPSDEQLKSGTASVVCLLNNFYPREAKVQWKVDNALQSGNSQESVTEQDSKDSTYSLSSTLTLSKADYEKHKVYACEVTHQGLSSPVTKSFNRGEC
notes: Fc variant with the variable domains of humanised 2.8.6; not shown: human IgG1 heavy chain constant region; copies: 2 + 2
- avidity (FcRn pH6) (human FcRn): 4.58 nM
- Kd (human FcγR1A [6]): 0.00375 µM
- Kd (human FcγR2A 131R [7]): 1.57 µM
- Kd (human FcγR2A 131H [8]): 1.98 µM
- Kd (human FcγR2B [9]): 8.65 µM
- Kd (human FcγR3A 158F [10]): 9.37 µM
- Kd (human FcγR3A 158V [11]): 2.78 µM
- Kd (human FcγR3B [12]): 22.9 µM

B6: Engineered humanised 3E8 (Variant B) (antibody, V domains shown)
VH: QVQLVQSGAELKKPGASVKVSCKASGYTFTSYAIRWVRQATGQGLEWMGEIYPRSGNTYYAQKFQGRATLTADKSISTAYMELSSLRSEDTAVYFCARSGGASYTMDYWGQGTTVTVSS
VL: ENVLTQSPATLSLSLGERATLSCSASSSVSSSYLHWYQQKPDQSPRPLIHRTSNLASGIPSRFSGSGSGTDYTLTISSLEAEDFAVYYCQQWSGYPFTFGSGTKLEIKR
- inhibition of NFkB signal, IC50 [1]: 0.065 nM
- maximal inhibition of NFkB signal [1]: 54%
- EC50 [2]: 0.177 nM
- EC50 [3]: 0.0156 µM
- Kd [4]: 0.141 µM
- koff [4]: 0.122 s⁻¹
- kon [4]: 865000 M⁻¹ s⁻¹
- Kd [5]: 1.52 µM
- koff [5]: 0.431 s⁻¹
- kon [5]: 287000 M⁻¹ s⁻¹

Other lines, results leading:

- avidity (FcRn pH6) (human FcRn): 1.98 nM
- fold higher affinity than the P238D isotype (human FcγR2B [13]): ~30 fold
- Kd (human FcγR1A [14]): 0.697 µM
- Kd (human FcγR2A 131R [15]): 1.84 µM
- Kd (human FcγR2A 131H [16]): 26.2 µM
- Kd (human FcγR2B [17]): 0.173 µM
- Kd (human FcγR3A 158F [18]): 216 µM
- Kd (human FcγR3A 158V [19]): 321 µM
- Kd (human FcγR3B [20]): 6090 µM
B3: humanised 2.8.6 hIgG1 P238D G237D P271G A330R (V9) (antibody)
heavy: QVTLKESGPALVKPTQTLTLTCTVSGFSLTTYGVHWIRQPPGKALEWLGVMWPGGRTSYNPSLKSRLTITKDNSKSQVVLTMTNMDPVDTATYYCVRGDYEYDYYAMDYWGQGTLVTVSSASTKGPSVFPLAPSSKSTSGGTAALGCLVKDYFPEPVTVSWNSGALTSGVHTFPAVLQSSGLYSLSSVVTVPSSSLGTQTYICNVNHKPSNTKVDKKVEPKSCDKTHTCPPCPAPELLGDDSVFLFPPKPKDTLMISRTPEVTCVVVDVSHEDGEVKFNWYVDGVEVHNAKTKPREEQYNSTYRVVSVLTVLHQDWLNGKEYKCKVSNKALPRPIEKTISKAKGQPREPQVYTLPPSREEMTKNQVSLTCLVKGFYPSDIAVEWESNGQPENNYKTTPPVLDSDGSFFLYSKLTVDKSRWQQGNVFSCSVMHEALHNHYTQKSLSLSPGK
light: B2 VL
notes: Fc variant with the variable domains of humanised 2.8.6; also called 2.8.6 hIgG1 V9; hIgG1 V9 isotype; copies: 2 + 2

- avidity (FcRn pH6) (human FcRn): 1.43 nM
- Kd [21]: 0.00073 µM
- Kd (human FcγR1A [22]): 0.465 µM
- inhibition of NFkB signal, IC50 [1]: 0.059 nM
- maximal inhibition of NFkB signal [1]: 42%
- Kd (human FcγR2A 131R [23]): 28.9 µM
- Kd (human FcγR2A 131H [24]): 76.5 µM
- Kd (human FcγR2B [25]): 4.78 µM
- Kd (human FcγR3A 158F [26]): 2480 µM
- Kd (human FcγR3A 158V [27]): 7010 µM
- Kd (human FcγR3B [28]): 1580 µM
- EC50 [2]: 0.066 nM
- EC50 [3]: 0.000854 µM
- Kd [4]: 0.00233 µM
- koff [4]: 0.00157 s⁻¹
- kon [4]: 673000 M⁻¹ s⁻¹
- Kd [5]: 0.147 µM
- koff [5]: 0.025 s⁻¹
- kon [5]: 170000 M⁻¹ s⁻¹
B4: Humanised 2.8.6 (hIgG1 P238D) (antibody)
heavy: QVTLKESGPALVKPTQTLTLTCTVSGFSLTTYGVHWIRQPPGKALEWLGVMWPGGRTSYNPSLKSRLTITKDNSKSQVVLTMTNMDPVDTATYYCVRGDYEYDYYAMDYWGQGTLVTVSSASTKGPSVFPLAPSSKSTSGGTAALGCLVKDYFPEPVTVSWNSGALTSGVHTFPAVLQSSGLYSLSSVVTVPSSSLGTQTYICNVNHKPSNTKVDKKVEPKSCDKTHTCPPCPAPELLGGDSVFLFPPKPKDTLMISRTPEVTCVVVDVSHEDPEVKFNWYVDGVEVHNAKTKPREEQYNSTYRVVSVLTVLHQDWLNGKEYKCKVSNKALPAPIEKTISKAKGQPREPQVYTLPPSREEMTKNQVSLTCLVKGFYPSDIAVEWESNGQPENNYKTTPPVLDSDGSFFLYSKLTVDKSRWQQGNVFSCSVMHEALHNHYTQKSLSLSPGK
light: B2 VL
notes: copies: 2 + 2

- binding result (human FcγR1A [22]): no binding
- Kd (human FcγR2A 131R [23]): 54.4 µM
- binding result (human FcγR2A 131H [24]): no binding
- Kd (human FcγR2B [25]): 104 µM
- binding result (human FcγR3A 158F [26]): no binding
- binding result (human FcγR3A 158V [27]): no binding
- binding result (human FcγR3B [28]): no binding
B5: humanised 2.8.6 hIgG1 D265A G236D S267E A330R (antibody)
heavy: B3 heavy with G239D, D240G, D241P, D268A, S270E, G274P
light: B2 VL
notes: Fc variant with the variable domains of humanised 2.8.6; copies: 2 + 2
